In the supplement of paper PMC9170038:

system: K4 kissing-loop RNA reporter; assay: apparent KD of K4 kissing-loop reporter; higher = weaker reporter binding; conditions: Eterna round: R107; input ligand: none
Description: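 RNA-MaP round R107: designed RNA switches with theophylline, tryptophan, arginine or FMN aptamers are transcribed on-chip within common flanks. They are titrated with a labelled K4 kissing-loop RNA reporter in RNA-MaP buffer (100 mM Tris pH 7.5, 80 mM KCl, 4 mM MgCl2), without ligand or with the indicated ligand. Median apparent KD per design.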
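Note: bound reporter read as fluorescence of individual clusters on recovered sequencing chips by microscopy, with normalized cluster intensities fitted with a binding model.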

Sequence	apparent KD of K4 kissing-loop reporter [nM]
ACGGUUUCCACGGCCGCCACUUGCGCAUUAGAUCUUACCCUAGGAGUGAUGUUCCAUACAAGUACAAGGACCGGGUGGGACAUAA [theeternabot_sameState_KL_Trp_B_28]	375
CCGUGGAGUGAUGUUCCACGUUCUACGGAUACCAGUUGUGCCAGCGGCCCUUGGCAGCCGCACCUUGCAGUGAUGUUGUGAGGCU [Same State Theophylline A Gf 6]	225
UGAUUUAACUGAAGGAGCGGCAAUUGAUAAGUAAAUAUAGUGAUGUUAUAUAAGAGAGAGAGCCAGGUAGGUCGCAGAGGGAGGA [ExArgB.I]	167
AAUUCAGUGAUGUUGGAAGGCAGGCGGGAUACCAGCGGAGAAUAACGCCCUUGGCAGCCCAUAUAUCCCAAAUAGAUAAUAGUUC [Same State - Theophylline A (Freestyle 3)]	410
GCAGUGAUGUUGCACGAGUAGGCUGGAGUACGAGGACCGGUACGGCCGCCACUCGUACGAUAGUCGCUAAUUUAUGGAAUGGUGA [#08 K4 Tryptophan A Same State]	551
CUGCAACAUAACUUCUUCGUCCUAGAAGACUAGGAUAUCAGGAAACUGAGAAGGAGUCUCUGCAGUGAUGUUGCAGCUAGGACGA [[K]'-[F2]'-[F1]'-[F1]-[F2]-[K1]-[K2]-[F]''_Design3]	148
UCAUGAAAGACGGCCGCCACUGAUGCUGGAGUGAUGUUUCGGACAUAGUAGAGUGAUGUUCUGCGCAGGACCGGGUCGUCAUGAA [KL-SSTryp-B10 #double Kiss]	134
AGCAGUCACUCGAAAACCAUCGAAGAUGGACGAGGACCGGUACGGCCGCCACUCGGAGUGAUGUUCCGAAGACUGCAAAAUAAAA [#SwitchBubble 16]	433
AUGGGUUGUUGAAGGAGCGCCGCCAGUGAUGUUGGGAGUUAGAUACCAGUGAUGUUGGGCCGGCAGGUAGGUCGCGGCGAUUUAU [Exclusion Arginine B GF 19]	484
GGCUUGCUAGUGAUGUUAGCAUUUUCUGAAGGAGCGCGUGAAAACGCAGGUAGGUCGCAGAACCUUGCCAACUAUUUUAGUUGCC [Ex Arginine A K4 27]	94.3
GUUACGCAUGGAAGGAGCGCAGGCUCAACAAAUAGCUCAGUGAUGUUGAGCAUAUUAAUUCUGCAGGUAGGUCGCCAUGUGUAAC [Ex Arginine B K4 25]	551
UUUUUUUACUGAAGGAGCGGCAAUUGAUACGUAGAUAUAGUGAUGUUAUAUAAGAUAGAGAGCCAGGUAGGUCGCAGAUUUUUUU [ExArgB.W]	163
GGGAGUAGUGCGGCCGCCACUGUGAAAGAAGAAGAAUAUAGUGAUGUUAUAUAGGAAAGGAAGAAUAGGACCGGGCAUUAGAUUU [SSTRyptB.K]	260
AAUUUAGUGACGGCCGCCACUAGGGUGAUUUAUUUGUUUGAGUGAUGUUUUGAUGUUUGAUUUUGUAGGACCGGGUUAGGUGAUG [dddcmullin]	363
GGCACUUUUGCUUGGAACCGUCAAGCUCGAUAGGAUAUGCCGAAAGGCAGAAGGAUUGACCUACAGAGUGAUGUUCUGCGUGCCU	830
AGUACAAUGGCGGCCGCCACUCAACGCAGAUCAAAGAUCUGCGAUCACUCAGUGAUGUUGAGUGAGAGGACCGGGCCUUUGUACA [Omei KL Tryp B SS B v6]	307
GUUAAAUAAAUGGGCAUAGUGAUGUUGUGUCGAGGACCGGUACGGCCGCCACUCGAGCUAGCAUGCCGGUCAUUAUGGGUAGUUU [theeternabot_exclusion_KL_Trp_A_46]	142
UUGAGCCUGACGGAAGUCAGGCUCUGCGAGCGAGGACCGGUACGGCCGCCACUCGGUGCAGUGAUGUUGCAUGGCCGCAAGGCCG [#2 Exclusion - Tryptophan A Attempt #16 (HarryS)]	352
ACGUAGUUCUAGGAUACCAGCCAAGGUGCCAGGACAAAAGUCCUGGCAGCCAGUGAUGUUGGCCCUUGGCAGCCUAGAACUACGA [Omei KL Theo B Exc B v7]	154
UAUAGAGUGACGGCCGCCACUAUUGUGAUUUAAUUGUUUGAGUGAUGUUUUGAUGUUUGAUUUUGUAGGACCGGGUUAUAUGUUA [zdzzmullin]	987
CUCCGACUAUCGGCCGCCACUAUCGGAAAGUCCACGGACAUUCAAUGCAGUUAGUGAUGUUAACGUAGGACCGGGAUGAUUUGUA [theeternabot_sameState_KL_Trp_B_9]	659

same assay, conditions: Eterna round: R107; input ligand: theophylline 20 uM

Sequence	apparent KD of K4 kissing-loop reporter [nM]
UGAUACCAGACGGCCGCCACUACACCAGUCAAAGACUGGAUGUGAUGUCUGACCAGUGAUGUUGGUAGGACCGGGUCUGGUAUCU [TrypBX 6 #Palindromic #SwitchBubble #StaticStem]	450
GGUAUCUAUACAGAUACCAGUCGUACGGCUGCAUUACAGGUUAGUGAUGUUAACCUGUACGACCCUUGGCAGCUGUAUAGUAGUA [#14 K4 Theophylline B Exclusion]	197
CGUUUCUCUGUCGAUACCAGCUUCAGUUGGCGGCCAGUGAUGUUGGUAUCGCCGAUGCCAAGCCCUUGGCAGCGACAUGAGACCC [Gezausin]	128
CUUGGAAGGACGGCCGCCACUGGGCAGUGAUGUUGCCCGAGUUGGUAACGCAGUGAUGUUGCGUCCAGGACCGGGUCCUAGGAAU [Exclusion Tryptophan B GF 25]	106
UAGAUAAUGUAAGAUUAUGAUAAUUGGGAAGGAGCGCGGAAAUUCGCAGGUAGGUCGCCCUAUAAAGUAGUACGAGUGAUGUUCG [6.)]	305
AAGUCUCGUUAAUUCGUGGUUUCGAUCGAUACCAGUAGCGAGAGGUACCCUUGGCAGCGAAAUGAGUGAUGUUCAUGAAAGAAGA [KL-XTheoA11]	153
GUAGCACUUGACAGUGAUGUUGUCAAGGGCAAGGAUAUCACCUCAGUGAGAAGGUGUCCUUGAUAACUGCUACGGGAAUAUCCCA [Omei KL FMN A Exc D v7]	156
UGACUGGACUGAAGGAGCGCUUAACUCCUAGUGAUGUUAGGAAAACGAGACAAAGUCUCGAAGCAGGUAGGUCGCAGUCUAGUCU	158
GCCAGUGAUGUUGGCAUUUCGAGCCAUGAAGGAGCGCACGGAAGUGCAGGUAGGUCGCAUGGUACUUAGGAUAUUACCCUAAGUA [Isterare]	200
CAUACGCAUGGAGGAUAUGAGAUUUCUCAUAUUAUUUAAUAUUCUCAGUGAUGUUGAGAUAUAAACUCAGAAGGCCAUGUGUAUG [Ex FMN B 2]	245
ACCACCUGUCUGGAUACCAGUCUUCGAGUGAUGUUGGAAGUUAGCCGGUUCUAUUACCUAGACCCUUGGCAGCCAGGAAUUAUAG [theeternabot_exclusion_KL_Theo_B_17]	1130
CGUGAAUGUCGUCAGUCAUCGGUCCAUGCACGAGGACCGGUACGGCCGCCACUCGAGCGUGGCAGUGAUGUUGCCAGCGCACUAA [KL-XTryp-A13]	137
CCUGCAGCUGUUACCGAGGGAUGCUACGGACGAGGACCGGUACGGCCGCCACUCGCCAGUGAUGUUGGUGAGGGAGGACGUUCCU [Georte]	172
UUAUCAUCAGCGGCCGCCACUGCAAAUUGGAGUGAUGUUCCAAGCGUGGAUAAUGAAAUCACUAGUAGGACCGGGUUGAUGAAUU [AK 1 Ex Trypt B]	254
CGCAGUGAUGUUGCGAGUUUGAUCAGGGAAGGAGCGGCUCAGAAGCCAGGUAGGUCGCCCACGCAGUGAUGUUGUGUAUUCGGGU [Exclusion Arginine A GF 1]	89.1
UGCCGCAAGGCGAGCGCUCCCACUCCGGAAGGAGCGCCCGGAAGGGCAGGUAGGUCGCCGGAGUGAUGUUCCGGUGGAGGGCUCG [#2 Exclusion - Arginine A Attempt #26 (Inspired by Omei)]	337

Sequence	apparent KD of K4 kissing-loop reporter [nM]
CCUAUCUCAUACGAUACCAGUCAAUGAUCUUUGAUCAAUGCCAUCACCGAGUGAUGUUCGGACCCUUGGCAGCGUAUGAGAUAGG [whbob_Ex_Theo_B_sa103]	452
AUUUAAUUAACUGAUACCAGACUUUUUGUUUUGAUAAUUACUAGUGAUGUUAGUGUUUCUGUCCCUUGGCAGCAGUAUCUACUUA [JR_ExcTheophyB_Sub017]	209
UUGAGCCGGACUUAAGUCCGGCUCUGCGAGCGAGGACCGGUACGGCCGCCACUCGGUGCAGUGAUGUUGCAUGGCCGCAAGGCCG [#2 Exclusion - Tryptophan A Attempt #11 (HarryS)]	231
GGAGGGAUCUCGGCCGCCACUCAUAAGAAAUGGGCCUCAGAAAUAUAGUGAUGUUAUGUAAAGAAGAGGACCGGGAGAAAGAAGG [ExTryptoB.Da]	218
UGGAGUUGACGAAAAGUCAACUCCUGAGAAGGAGCGCACGAAAGUGCAGGUAGGUCGCUCUACCAGUGAUGUUGGUACUUAAUAA [#OpenEnded 6]	162
ACGGUUUCCACGGCCGCCACUUGCGCAUUAGAUCUUACCCUAGGAGUGAUGUUCCAUACAAGUACAAGGACCGGGUGGGACAUAA [theeternabot_sameState_KL_Trp_B_28]	342
CCGUGGAGUGAUGUUCCACGUUCUACGGAUACCAGUUGUGCCAGCGGCCCUUGGCAGCCGCACCUUGCAGUGAUGUUGUGAGGCU [Same State Theophylline A Gf 6]	229
UGAUUUAACUGAAGGAGCGGCAAUUGAUAAGUAAAUAUAGUGAUGUUAUAUAAGAGAGAGAGCCAGGUAGGUCGCAGAGGGAGGA [ExArgB.I]	170
AAUUCAGUGAUGUUGGAAGGCAGGCGGGAUACCAGCGGAGAAUAACGCCCUUGGCAGCCCAUAUAUCCCAAAUAGAUAAUAGUUC [Same State - Theophylline A (Freestyle 3)]	405
GCAGUGAUGUUGCACGAGUAGGCUGGAGUACGAGGACCGGUACGGCCGCCACUCGUACGAUAGUCGCUAAUUUAUGGAAUGGUGA [#08 K4 Tryptophan A Same State]	286
CUGCAACAUAACUUCUUCGUCCUAGAAGACUAGGAUAUCAGGAAACUGAGAAGGAGUCUCUGCAGUGAUGUUGCAGCUAGGACGA [[K]'-[F2]'-[F1]'-[F1]-[F2]-[K1]-[K2]-[F]''_Design3]	197
UCAUGAAAGACGGCCGCCACUGAUGCUGGAGUGAUGUUUCGGACAUAGUAGAGUGAUGUUCUGCGCAGGACCGGGUCGUCAUGAA [KL-SSTryp-B10 #double Kiss]	130
AGCAGUCACUCGAAAACCAUCGAAGAUGGACGAGGACCGGUACGGCCGCCACUCGGAGUGAUGUUCCGAAGACUGCAAAAUAAAA [#SwitchBubble 16]	346
AUGGGUUGUUGAAGGAGCGCCGCCAGUGAUGUUGGGAGUUAGAUACCAGUGAUGUUGGGCCGGCAGGUAGGUCGCGGCGAUUUAU [Exclusion Arginine B GF 19]	332
GGCUUGCUAGUGAUGUUAGCAUUUUCUGAAGGAGCGCGUGAAAACGCAGGUAGGUCGCAGAACCUUGCCAACUAUUUUAGUUGCC [Ex Arginine A K4 27]	97.3
